Measurements as given in patent publication US10450368.

Assays:
Centromere B [1] = target: Centromere B (UniProt P07199); experiment: AtheNA, Ab 6.25 ug/ml
Centromere B [2] = target: Centromere B (UniProt P07199); experiment: AtheNA, Ab 12.5 ug/ml
Centromere B [3] = target: Centromere B (UniProt P07199); experiment: AtheNA, Ab 25 ug/ml
[4] = target: B41 SOSIP.664 gp140 trimer (HIV-1); experiment: negative stain EM, 10 molar excess of Fab
[5] = target: BG505 SOSIP.664 gp140 trimer (HIV-1); experiment: negative stain EM, 10 molar excess of Fab
[6] = target: CH505.TF mutant gp120 M6 (HIV-1); experiment: direct-binding ELISA (OD450), panel 'CH505.TF gp120 M6'
Con S gp120 = experiment: direct-binding ELISA (OD450), panel 'Con S gp120'
[7] = target: HIV-1 CH505 transmitted/founder gp120 Env (HIV-1); experiment: direct-binding ELISA (OD450), panel 'CH505.TF gp120'
[8] = target: CH505.TF mutant gp120 M8 (HIV-1); experiment: direct-binding ELISA (OD450), panel 'CH505.TF gp120 M8'
Jo-1 [9] = target: Jo-1 (UniProt P12081); experiment: AtheNA, Ab 6.25 ug/ml
AtheNA, Ab 25 ug/ml = substrate: SSB (UniProt P05455); experiment: AtheNA, Ab 25 ug/ml
Jo-1 [10] = target: Jo-1 (UniProt P12081); experiment: AtheNA, Ab 12.5 ug/ml
Centromere B [11] = target: Centromere B (UniProt P07199); experiment: AtheNA, Ab 50 ug/ml
Jo-1 [12] = target: Jo-1 (UniProt P12081); experiment: AtheNA, Ab 50 ug/ml
AtheNA, Ab 6.25 ug/ml = substrate: SSB (UniProt P05455); experiment: AtheNA, Ab 6.25 ug/ml
AtheNA, Ab 50 ug/ml = substrate: SSB (UniProt P05455); experiment: AtheNA, Ab 50 ug/ml
AtheNA, Ab 12.5 ug/ml = substrate: SSB (UniProt P05455); experiment: AtheNA, Ab 12.5 ug/ml
Jo-1 [13] = target: Jo-1 (UniProt P12081); experiment: AtheNA, Ab 25 ug/ml

SSB, sequence (P05455 whole entry): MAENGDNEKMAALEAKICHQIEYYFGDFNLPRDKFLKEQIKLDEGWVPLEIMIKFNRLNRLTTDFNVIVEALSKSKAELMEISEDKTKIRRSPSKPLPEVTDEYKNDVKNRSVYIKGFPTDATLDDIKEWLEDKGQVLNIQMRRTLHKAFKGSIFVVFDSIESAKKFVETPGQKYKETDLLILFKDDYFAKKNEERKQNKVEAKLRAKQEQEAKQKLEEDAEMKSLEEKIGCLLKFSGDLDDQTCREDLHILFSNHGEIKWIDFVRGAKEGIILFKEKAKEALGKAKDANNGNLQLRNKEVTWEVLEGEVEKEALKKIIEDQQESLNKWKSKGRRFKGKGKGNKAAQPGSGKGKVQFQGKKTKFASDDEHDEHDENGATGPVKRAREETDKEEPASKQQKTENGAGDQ
Centromere B, sequence (P07199 whole entry): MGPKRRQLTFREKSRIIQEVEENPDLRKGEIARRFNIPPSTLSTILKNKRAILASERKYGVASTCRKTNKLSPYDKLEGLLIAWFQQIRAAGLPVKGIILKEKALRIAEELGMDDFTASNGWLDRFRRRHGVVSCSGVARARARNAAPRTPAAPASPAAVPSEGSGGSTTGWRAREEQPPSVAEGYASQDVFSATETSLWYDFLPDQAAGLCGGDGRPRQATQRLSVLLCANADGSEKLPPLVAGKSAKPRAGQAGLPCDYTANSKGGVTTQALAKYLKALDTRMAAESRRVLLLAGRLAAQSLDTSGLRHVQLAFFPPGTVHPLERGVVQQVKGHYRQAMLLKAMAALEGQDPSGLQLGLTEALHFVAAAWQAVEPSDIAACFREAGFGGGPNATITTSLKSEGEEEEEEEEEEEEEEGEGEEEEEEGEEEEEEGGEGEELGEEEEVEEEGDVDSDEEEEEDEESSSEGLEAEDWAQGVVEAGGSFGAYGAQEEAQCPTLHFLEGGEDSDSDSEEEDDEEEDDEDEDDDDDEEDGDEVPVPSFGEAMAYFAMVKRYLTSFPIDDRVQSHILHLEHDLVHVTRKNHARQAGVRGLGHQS
Jo-1, sequence (P12081 whole entry): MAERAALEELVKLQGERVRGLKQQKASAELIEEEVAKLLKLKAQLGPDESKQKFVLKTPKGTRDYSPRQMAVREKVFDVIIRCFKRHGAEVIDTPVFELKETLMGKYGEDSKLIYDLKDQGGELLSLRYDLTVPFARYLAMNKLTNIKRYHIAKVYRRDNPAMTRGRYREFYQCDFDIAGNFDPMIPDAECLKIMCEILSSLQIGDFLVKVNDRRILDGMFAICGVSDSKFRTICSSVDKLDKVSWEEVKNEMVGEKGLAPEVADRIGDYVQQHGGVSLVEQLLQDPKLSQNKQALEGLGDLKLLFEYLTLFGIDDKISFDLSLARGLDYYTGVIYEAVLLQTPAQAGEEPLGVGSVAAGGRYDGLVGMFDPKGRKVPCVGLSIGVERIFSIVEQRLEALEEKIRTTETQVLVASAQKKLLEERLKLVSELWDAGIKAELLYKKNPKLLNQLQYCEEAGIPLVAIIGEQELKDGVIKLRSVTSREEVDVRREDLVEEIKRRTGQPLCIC

B1: CH235 (antibody, V domains shown)
VH: QVQLVQSGAEVKKPGASVTVSCQASGYTFTNYYVHWVRQAPGQGLQLMGWIDPSWGRTNYAQNFQGRITMTRDTSTSTVYMEMRSLRSEDTAVYYCARNVATEGSLLHYDYWGQGTLVTVSA
VL: EIVLTQSPATLSVSPGERATLSCRASQSVRSNLAWYQQRPGQAPRLLIYGTSTRATGVPARFSGRGSGTEFTLAISSMQSEDFAVYLCLQYNNWWTFGQGTKVEIK
- AtheNA signal (relative luminescence units) (Centromere B [1]): 3
- AtheNA signal (relative luminescence units) (Centromere B [2]): 5
- AtheNA signal (relative luminescence units) (Centromere B [3]): 6

B2: CH235 Fab (Fab, V domains shown)
VH: QVQLVQSGAEVKKPGASVTVSCQASGYTFTNYYVHWVRQAPGQGLQLMGWIDPSWGRTNYAQNFQGRITMTRDTSTSTVYMEMRSLRSEDTAVYYCARNVATEGSLLHYDYWGQGTLVTVSA
VL: EIVLTQSPATLSVSPGERATLSCRASQSVRSNLAWYQQRPGQAPRLLIYGTSTRATGVPARFSGRGSGTEFTLAISSMQSEDFAVYLCLQYNNWWTFGQGTKVEIK
- stoichiometry (Fabs per trimer) (Fabs per trimer) [4]: 2
- stoichiometry (Fabs per trimer) (Fabs per trimer) [5]: 1

B3: CH492 (antibody, V domains shown)
VH: QVQLVQSGAAVKKPGASVRVSCKASGYTFTSSHIHWVRQAPGQGPEWMGMVDPRFGRPTYAQKFQGRVAMTRDIYTSTVYMDLRSLKSEDTAIYFCVRNAETEGSLLHIEYWGQGTRVTVSS
VL: EIVLTQSPATLSVSPGERATLSCRASQSVRSNIAWYQQKPGQAPRLLIHGASTRATGIPGRFSGSGSGPEFTLAISSVQSEDFAVYYCQQYNDWWTFGQGTKVEIK
- EC50 (read off the curve) [6]: 0.5 µg/mL
- EC50 (read off the curve) (Con S gp120): 5 µg/mL
- EC50 (read off the curve) [7]: 0.5 µg/mL
- EC50 (read off the curve) [8]: 6 µg/mL

B4: CH241 (antibody, V domains shown)
VH: QVQLVQSGAAVKKPGASVRVSCKASGYTFTSSHIHWVRQAPGQGPEWMGMIDPSVGRPTTAGKFQGRVTMTRDRYTSTAYMDLSSLRSEDTAVYYCARSVETTGSLLYFDYWGQGTLITVSS
VL: EIVLTQSPATLSVSPGERATLSCRASQSVRSNIAWYQQKPGQAPRLLIHGASTRATGIPGRFSGSGSGPEFTLAISSVQSEDFAVYYCQQYNDWWTFGQGTKVEIK
- AtheNA signal (relative luminescence units) (Centromere B [1]): 6
- AtheNA signal (relative luminescence units) (Centromere B [2]): 8
- AtheNA signal (relative luminescence units) (Centromere B [3]): 14

B5: CH236 (antibody, V domains shown)
VH: QVQLVQSGAAVKRPGASVTISCRASGYTFTTYYIHWVRQAPGQRLELMGMIDPSRGRTDYAQKFQGRVTMSRDTSTSTLYMELRSLRPDDTALYYCVRNVGTEGSLLHYDYWGQGTLVTVSS
VL: EIVLTQSPATLSVSPGERVTLSCRASQSVRNNLAWYRQKRGQAPRLLIYGASTRATGIPARFSGSGSGTEFTLTISSMQSEDFAVYYCQQYNNWWTFGQGTKVEIK
- AtheNA signal (relative luminescence units) (Centromere B [1]): 208
- AtheNA signal (relative luminescence units) (Jo-1 [9]): 7
- AtheNA signal (relative luminescence units) (AtheNA, Ab 25 ug/ml): 175
- AtheNA signal (relative luminescence units) (Centromere B [2]): 233
- AtheNA signal (relative luminescence units) (Jo-1 [10]): 19
- AtheNA signal (relative luminescence units) (Centromere B [11]): 84
- AtheNA signal (relative luminescence units) (Jo-1 [12]): 145
- AtheNA signal (relative luminescence units) (AtheNA, Ab 6.25 ug/ml): 15
- AtheNA signal (relative luminescence units) (AtheNA, Ab 50 ug/ml): 207
- AtheNA signal (relative luminescence units) (AtheNA, Ab 12.5 ug/ml): 63
- AtheNA signal (relative luminescence units) (Centromere B [3]): 129
- AtheNA signal (relative luminescence units) (Jo-1 [13]): 72

B6: CH491 (antibody, V domains shown)
VH: QVQLVQSGAAVKRPGASVTISCRASGYTFTTYYIHWVRQAPGQGLELMGWINPRGGRTDYSYRFEDRVSMYRDTSMSIVYMDLRNLKSADTAVYYCVRNVGTSGSLLHYDFWGQGSLVTVSS
VL: EIVLTQSPATLSVSPGERVTLSCRASQSVRNNLAWYRQKRGQAPRLLIYGASTRATGIPARFSGSGSGTEFTLTISSMQSEDFAVYYCQQYNNWWTFGQGTKVEIK
- AtheNA signal (Jo-1 [9]): 56
- AtheNA signal (AtheNA, Ab 25 ug/ml): 95
- AtheNA signal (Jo-1 [10]): 79
- AtheNA signal (Jo-1 [12]): 169
- AtheNA signal (AtheNA, Ab 6.25 ug/ml): 42
- AtheNA signal (AtheNA, Ab 50 ug/ml): 144
- AtheNA signal (AtheNA, Ab 12.5 ug/ml): 60
- AtheNA signal (Jo-1 [13]): 118

B7: CH235.9 Fab (Fab, V domains shown)
VH: QVRLLQYGGGVKRPGASMTISCVASGYNFNDYYIHWVRQAPGQGLELMGWIDPSGGRTDYAGAFGDRVSMYRDKSMNTLYMDLRSLRSGDTAMYYCVRNVGTAGSLLHYDHWGLGVMVTVSS
VL: EIVLTQSPATLSVSPGERVTLSCRASQSVRNNLAWYRQKRGQAPRLLIYGASTRATGIPARFSGSGSGTEFTLTISSMQSEDFAVYYCQQYNNWWTFGQGTKVEIK
- stoichiometry (Fabs per trimer) (Fabs per trimer) [4]: 3
- stoichiometry (Fabs per trimer) (Fabs per trimer) [5]: 3

B8: CH493 (antibody, V domains shown)
VH: QVRLLQYGGGVKRPGASMTISCVASGYNFNDYYIHWVRQAPGQGLELMGWIDPSGGRTDYAGAFGDRVSMYRDKSMNTLYMDLRSLRSGDTAMYYCVRNVGTAGSLLHYDHWGLGVMVTVSS
VL: EIVLTQSPATLSVSPGERVTLSCRASQSVRNNLAWYRQKRGQAPRLLIYGASTRATGIPARFSGSGSGTEFTLTISSMQSEDFAVYYCQQYNNWWTFGQGTKVEIK
- AtheNA signal (Centromere B [1]): 177
- AtheNA signal (Jo-1 [9]): 54
- AtheNA signal (Centromere B [2]): 165
- AtheNA signal (Jo-1 [10]): 102
- AtheNA signal (Centromere B [11]): 94
- AtheNA signal (Jo-1 [12]): 198
- AtheNA signal (Centromere B [3]): 129
- AtheNA signal (Jo-1 [13]): 167

B9: CH235.12 Fab (Fab, V domains shown)
VH: QVRLAQYGGGVKRLGATMTLSCVASGYTFNDYYIHWVRQAPGQGFELLGYIDPANGRPDYAGALRERLSFYRDKSMETLYMDLRSLRYDDTAMYYCVRNVGTAGSLLHYDHWGSGSPVIVSS
VL: EIVLTQSPATLSASPGERVTLTCRASRSVRNNVAWYQHKGGQSPRLLIYDASTRAAGVPARFSGSASGTEFTLAISNLESEDFTVYFCLQYNNWWTFGQGTRVDIK
- stoichiometry (Fabs per trimer) (Fabs per trimer) [4]: 3
- stoichiometry (Fabs per trimer) (Fabs per trimer) [5]: 3
